Measurements taken from paper PMC3985873.
Changes are numbered by the printed parent chain. Where two headings read alike, the source gives them in different places.

B1: GT mismatch DNA (A1/B1/C1-GT) (dsDNA)
DNA 1: TGTCGGGGCTGGCTTAAGGTGTGAAATACCTCATCTCGAGCGTGCCGATA
DNA 2: TATCGGCACGTTCGAGATG
DNA 3: AGGTATTTCACACCTTAAGCCAGCCCCGACA
B2: T-bulge DNA (A1/B1/C2-T-bulge) (dsDNA)
DNA 1: B1 DNA 1
DNA 2: TATCGGCACGTCTCGAGATG
DNA 3: B1 DNA 3

Key:
Test in all cases: smFRET
MutS-E41A [1] = molecular target: T1, MutS-E41A (Thermus aquaticus, UniProt Q56215 1-811, E41A)
T1 sequence: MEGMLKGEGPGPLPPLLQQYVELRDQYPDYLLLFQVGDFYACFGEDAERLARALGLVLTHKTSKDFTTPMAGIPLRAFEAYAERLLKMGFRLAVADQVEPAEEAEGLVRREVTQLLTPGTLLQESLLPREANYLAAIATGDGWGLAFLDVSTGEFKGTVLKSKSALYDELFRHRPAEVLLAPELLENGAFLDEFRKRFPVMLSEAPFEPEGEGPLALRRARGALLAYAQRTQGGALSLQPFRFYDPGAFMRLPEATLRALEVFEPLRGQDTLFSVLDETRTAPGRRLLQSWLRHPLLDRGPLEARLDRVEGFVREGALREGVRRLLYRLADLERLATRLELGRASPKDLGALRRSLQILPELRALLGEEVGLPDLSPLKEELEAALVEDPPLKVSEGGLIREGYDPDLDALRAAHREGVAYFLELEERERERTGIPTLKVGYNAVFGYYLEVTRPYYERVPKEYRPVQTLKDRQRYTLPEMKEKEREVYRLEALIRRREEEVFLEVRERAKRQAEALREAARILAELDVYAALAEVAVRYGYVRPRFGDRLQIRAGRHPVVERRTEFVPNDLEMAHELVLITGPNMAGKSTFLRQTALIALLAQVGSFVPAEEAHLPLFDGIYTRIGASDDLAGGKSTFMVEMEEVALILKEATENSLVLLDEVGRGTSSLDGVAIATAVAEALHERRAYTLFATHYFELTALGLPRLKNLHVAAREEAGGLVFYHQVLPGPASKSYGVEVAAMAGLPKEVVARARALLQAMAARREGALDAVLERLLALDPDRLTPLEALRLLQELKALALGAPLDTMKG

MutS [2] = molecular target: T2, MutS (Thermus aquaticus, UniProt Q56215 1-811)
T2 sequence: T1 sequence with A41E

MutS [3] = molecular target: T2, MutS; remark: listed apart in the source
MutS-E41A [4] = molecular target: T1, MutS-E41A; remark: listed apart in the source

Row | Binder | binding result (MutS-E41A [1]) | binding result (MutS [2]) | binding result (MutS [3]) | binding result (MutS-E41A [4])
1 | B1 | binds | binds |  | 
2 | B2 |  |  | binds | binds
